Values joined by “and” are separate entries in the source; they are usually repeats but may differ in a detail not shown here. Identical values can stand only once.
Columns and labels:
[1] = system: T47D breast cancer cells; assay: Induced transition of breast cancer cells to a more metastatic state, RT-PCR of metastatic markers; type: cell-based, human
Method: In one particular experiment, T47D human breast cancer cells were cultured in standard RPMI media for 14 days with media changes every 48 hours and passed by trypsinization when approximately 75% confluent. The cells were then plated into 6-well plates and cultured in minimal stem cell media (see Example 1) that was supplemented with 4 nM NME7-AB. Media was changed every 48 hours. By about Day 4, some cells become detached from the surface and float. Media is carefully changed so as to retain the “floaters” as these are the cells that have the highest metastatic potential as evidence by RT-PCR measurement of metastatic markers. On Day 7 or 8, the floaters are harvested and counted. Samples are retained for RT-PCR measurement.
We have shown that NME7-AB promotes cancerous growth and causes cancer cells to accelerate to the highly metastatic cancer stem cell (CSC) state also called tumor initiating cells (TIC). Therefore, we conclude that NME7-X1 and an NME7 cleavage product that removes the DM10 domain also promote cancerous growth and causes cancer cells to accelerate to the highly metastatic cancer stem cell (CSC) state also called tumor initiating cells (TIC). In one example, NME7-AB was added to cancer cells in a serum-free media and in the absence of any other growth factors or cytokines. […] After 10 days cells were collected and analyzed by RT-PCR for expression of molecular markers of CSCs which were elevated by 10-200-times (FIGS. 11, 12). […]
A rho I kinase inhibitor, ROCi, ROCKi or Ri, was added to prevent the transformed cells from floating off the plate. Expression levels of various metastatic markers as well as pluripotent stem cell markers were measured for the parent cells and for the NME7-AB cultured cells.
T47D human breast cancer cells were cultured in standard RPMI media for 14 days with media changes every 48 hours and passed by trypsinization when approximately 75% confluent. […] On Day 7 or 8, the floaters are harvested and counted. […]

[2] = system: T47D human breast cancer cells xenografted; assay: Xenograft of NME7-AB cultured floater cells in nu/nu mice with daily NME7-AB injection; type: in vivo, female nu/nu athymic mice
Method: The freshly harvested floater metastatic cells were xenografted into the flank of female nu/nu athymic mice that have been implanted with 90-day slow release estrogen pellets. Floater cells were xenografted with 10,000, 1,000, 100 or 50 cells each. Half of the mice in each group of 6 were also injected daily with 32 nM NME7-AB near the original implantation site. The parent T47D cells that were cultured in RPMI media without NME7-AB were also implanted into mice at 6 million, 10,000 or 100 as controls. Mice implanted with the NME7-induced floater cells developed tumors even when as few as 50 cells were implanted. Mice that were implanted with the floater cells and that received daily injections of NME7-AB also developed remote tumors or remote metastases in various organs (FIG. 20-25). 11 out of the 12 mice, or 92%, that were injected with human NME7-AB after implantation of the NME7-AB cultured cancer cells developed tumors at the injection site. Only 7 out of the 12 mice, or 58%, that were not injected with human NME7-AB after implantation developed tumors. […] None of the mice that were not injected with NME7-AB developed multiple, visible tumors.
The freshly harvested floater metastatic cells are xenografted into the flank of female nu/nu athymic mice that have been implanted with 90-day slow release estrogen pellets. Floater cells were xenografted as 10,000, 1,000, 100 or 50 cells each. Half of the mice in each group of 6 were also injected daily with 32 nM NME7-AB near the original implantation site. The parent T47D cells that were cultured in RPMI media without NME7-AB were also implanted into mice as 6 million, 10,000 or 100 as controls. Mice implanted with the NME7-induced floater cells developed tumors even when as few as 50 cells were implanted. Mice that were implanted with the floater cells and that received daily injections of NME7-AB also developed remote tumors or remote metastases in various organs (FIG. 20-25). 11 out of the 12 mice, or 92%, that were injected with human NME7-AB after implantation of the NME7-AB cultured cancer cells, developed tumors at the injection site. Only 7 out of the 12 mice, or 58%, that were not injected with human NME7-AB after implantation developed tumors. 9 out of the 11 mice, or 82%, that got tumors and were injected with human NME7-AB developed multiple tumors remote from the injection site. None of the mice that were not injected with NME7-AB developed multiple, visible tumors.

[3] = system: MDA-MB breast cancer cell line; assay: RT-PCR of metastatic markers after culture in NME7-AB, MDA-MB; type: cell-based, human; details: serum-free media containing NME7-AB
Method: FIGS. 37A-37C show graphs of RT-PCR measurements of metastatic markers in cancer cells after being cultured in a serum-free media containing NME7-AB compared to the standard media.
(§1) Ovarian cancer cells, pancreatic cancer cells and melanoma cells were also cultured in NME7-AB and were transformed to a more metastatic state after as few as 3 days in culture.

[4] = system: DU145 prostate cancer cells; assay: RT-PCR of CSC markers after culture in NME7-AB, DU145; type: cell-based, human
Method: FIG. 13 is a graph of RT-PCR measurements of gene expression for a variety of stem and putative cancer stem cell markers for DU145 prostate cancer cells. Cells were cultured either in traditional media or a media containing NME1 dimers (“NM23”) or NME7 (NME7-AB). Rho kinase inhibitor was not used because by passage 2, cells remained adherent.
as §1

B1: NME7-AB: recombinant human NME7 devoid of the DM10 domain, NDPK A and B domains, about 33 kDa monomer (protein)
chain: MEKTLALIKPDAISKAGEIIEIINKAGFTITKLKMMMLSRKEALDFHVDHQSRPFFNELIQFITTGPIIAMEILRDDAICEWKRLLGPANSGVARTDASESIRALFGTDGIRNAAHGPDSFASAAREMELFFPSSGGCGPANTAKFTNCTCCIVKPHAVSEGLLGKILMAIRDAGFEISAMQMFNMDRVNVEEFYEVYKGVVTEYHDMVTEMYSGPCVAMEIQQNNATKTFREFCGPADPEIARHLRPGTLRAIFGKTKIQNAVHCTDLPEDGLLEVQYFFKILDN
- CXCR4 up-regulation ([1]; 4 nM NME7-AB in minimal stem cell media, floaters Day 7 or 8): 40-200 times
- elevation of molecular markers of CSCs ([1]; 16 nM NME7-AB, after 10 days): 10-200 times
- increase in expression of molecular markers such as CXCR4 ([1]; serum-free media, within 7-10 days): more than 100 fold
- number of implanted NME7-induced floater cells that developed tumors ([2]; cells pre-cultured in NME7-AB): ≤ 50 cells
- mice that developed tumors at the injection site ([2]; injected daily with 32 nM NME7-AB, 11 out of 12 mice): 92%
- mice that developed multiple tumors remote from the injection site ([2]; injected daily with NME7-AB, 9 out of 11 mice with tumors): 82% and 80%
- engraftment rate of cancer cells cultured in NME7-AB ([2]; xenografted into test animals): over 90%
- metastatic marker expression after culture in NME7-AB [3]: increased expression of metastatic markers CDH1 aka E-cadherin and SOX2
- CSC marker expression after culture in NME7-AB [4]: dramatic increases in expression of CSC markers
